According to IntAct's records for PubMed 30591568:

B1: Poliovirus receptor (Homo sapiens), P15151 (parent)
chain: MARAMAAAWPLLLVALLVLSWPPPGTGDVVVQAPTQVPGFLGDSVTLPCYLQVPNMEVTHVSQLTWARHGESGSMAVFHQTQGPSYSESKRLEFVAARLGAELRNASLRMFGLRVEDEGNYTCLFVTFPQGSRSVDIWLRVLAKPQNTAEVQKVQLTGEPVPMARCVSTGGRPPAQITWHSDLGGMPNTSQVPGFLSGTVTVTSLWILVPSSQVDGKNVTCKVEHESFEKPQLLTVNLTVYYPPEVSISGYDNNWYLGQNEATLTCDARSNPEPTGYNWSTTMGPLPPFAVAQGAQLLIRPVDKPINTTLICNVTNALGARQAELTVQVKEGPPSEHSGISRNAIIFLVLGILVFLILLGIGIYFYWSKCSREVLWHCHLCPSSTEHASASANGHVSYSAVSRENSSSQDPQTEGTR
partner: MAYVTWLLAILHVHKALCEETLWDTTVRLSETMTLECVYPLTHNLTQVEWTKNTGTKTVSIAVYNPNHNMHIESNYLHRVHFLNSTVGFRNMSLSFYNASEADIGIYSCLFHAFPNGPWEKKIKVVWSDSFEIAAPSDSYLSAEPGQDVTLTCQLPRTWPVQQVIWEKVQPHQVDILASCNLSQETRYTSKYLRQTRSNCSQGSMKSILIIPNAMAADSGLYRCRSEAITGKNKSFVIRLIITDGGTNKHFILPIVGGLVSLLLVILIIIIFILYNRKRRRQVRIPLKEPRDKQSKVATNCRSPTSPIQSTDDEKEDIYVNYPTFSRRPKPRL
B2: Poliovirus receptor (Homo sapiens), P15151 (parent)
chain: B1 chain
partner: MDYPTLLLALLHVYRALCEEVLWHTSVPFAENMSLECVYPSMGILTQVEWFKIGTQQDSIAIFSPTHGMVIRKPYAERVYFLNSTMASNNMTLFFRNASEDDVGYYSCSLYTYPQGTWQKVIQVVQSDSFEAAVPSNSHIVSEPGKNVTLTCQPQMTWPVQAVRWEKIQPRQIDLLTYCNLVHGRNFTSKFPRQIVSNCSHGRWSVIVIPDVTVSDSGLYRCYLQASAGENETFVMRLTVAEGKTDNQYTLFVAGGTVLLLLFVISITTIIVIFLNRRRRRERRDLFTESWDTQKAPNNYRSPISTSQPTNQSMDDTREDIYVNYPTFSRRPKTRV
B3: CD226 antigen (Mus musculus), Q8K4F0 (parent)
chain: B1 partner
partner: B1 chain

Variants of: B1
Details: with cd226_mouse Cd226, Q8K4F0

Variant | effect of a mutation on the interaction
Q63R;F128R | disrupting interaction strength

Variants of: B2
Details: with cd226_human CD226, Q15762

Variant | effect of a mutation on the interaction
Q63R;F128R | disrupting interaction strength

Variants of: B3
Details: with pvr_human PVR, P15151

Variant | effect of a mutation on the interaction
Q47R;E49R;H68S;F114R | disrupting interaction strength
Q47A | disrupting interaction strength
H68A | decreasing interaction strength
F114A | disrupting interaction strength
